Among the data in paper PMC11852716, “c-di-GMP phosphodiesterase ProE interacts with quorum sensing protein PqsE to promote pyocyanin production in Pseudomonas aeruginosa” (mSphere, 2025) are Kd values, retold here.

What all share (conditions): both partners purified
In assay [1] the target is T1, c-di-GMP phosphodiesterase ProE (Pseudomonas aeruginosa, UniProt Q9HTQ9 1-558).
T1 construct: ProE, c-di-GMP phosphodiesterase of Pseudomonas aeruginosa PAO1; also called PDE ProE
T1 sequence: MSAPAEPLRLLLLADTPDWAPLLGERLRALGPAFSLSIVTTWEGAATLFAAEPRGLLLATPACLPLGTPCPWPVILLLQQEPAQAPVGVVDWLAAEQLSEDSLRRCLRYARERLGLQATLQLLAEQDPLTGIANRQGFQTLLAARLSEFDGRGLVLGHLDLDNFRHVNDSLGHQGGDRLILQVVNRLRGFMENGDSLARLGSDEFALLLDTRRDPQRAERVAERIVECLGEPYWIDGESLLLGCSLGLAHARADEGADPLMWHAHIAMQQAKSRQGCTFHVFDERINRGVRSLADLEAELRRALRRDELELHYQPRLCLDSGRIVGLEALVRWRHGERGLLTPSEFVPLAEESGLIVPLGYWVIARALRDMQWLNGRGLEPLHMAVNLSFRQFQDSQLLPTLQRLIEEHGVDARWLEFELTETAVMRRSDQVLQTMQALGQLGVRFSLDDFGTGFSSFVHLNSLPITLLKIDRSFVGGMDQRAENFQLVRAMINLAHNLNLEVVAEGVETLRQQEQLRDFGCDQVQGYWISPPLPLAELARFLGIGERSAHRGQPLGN
Briefly: SPR; Biacore T200, 25°C, PBST pH 7.4; PqsE amine-coupled on CM5 chip, ProE injected with 10 mM Mg2+. (In general: Surface plasmon resonance follows binding to a sensor surface in real time, without labels.)

For assay [2], the target named is T1, c-di-GMP phosphodiesterase ProE. Briefly: SPR; Biacore T200, 25°C, PBST pH 7.4; PqsE amine-coupled on CM5 chip, ProE injected with 100 µM c-di-GMP.
For assay [3] the target is unchanged. In words: SPR; Biacore T200, 25°C, PBST pH 7.4; PqsE amine-coupled on CM5 chip (8,000 RU), ProE injected; 1:1 Langmuir or steady-state affinity model.
Assay [4] has the same target. Briefly: ITC; MicroCal VP-ITC, 25°C; ProE (printed 'Thirty micrometers') in the cell titrated with 300 µM PqsE; PBS with 5 mM β-mercaptoethanol; single set of identical sites model. For orientation: Isothermal titration calorimetry measures the heat released or taken up as one component is titrated into another.

B1: PQS quorum sensing protein PqsE (natural protein)
chain: MLRLSAPGQLDDDLCLLGDVQVPVFLLRLGEASWALVEGGISRDAELVWADLCRWVADPSQVHYWLITHKHYDHCGLLPYLCPRLPNVQVLASERTCQAWKSESAVRVVERLNRQLLRAEQRLPEACAWDALPVRAVADGEWLELGPRHRLQVIEAHGHSDDHVVFYDVRRRRLFCGDALGEFDEAEGVWRPLVFDDMEAYLESLERLQRLPTLLQLIPGHGGLLRGRLAADGAESAYTECLRLCRRLLWRQSMGESLDELSEELHRAWGGQSVDFLPGELHLGSMRRMLEILSRQALPLD
notes: PqsE of the PQS quorum sensing system, Pseudomonas aeruginosa PAO1; DNA fragment encoding pqsE cloned into pET28b(+); source: E. coli BL21(DE3), pET28b(+), purified (Ni-NTA)
One may read the Kd as the equilibrium constant for the complex coming apart. As for B1, the Kd came to 2.27 µM in assay [1], 2.21 µM in assay [2], 3.21 µM in assay [3] and 5.46 µM in assay [4].
